Consider 39 molecules from US20220259593A1, “CONTROL OF MAMMALIAN GENE DOSAGE USING CRISPR” (The Regents of the University of California, priority 2019, published 2022).

Residue numbers refer to the chain shown, from its start.

To fix the notation:
B1: cr623 (nucleic acid)
guide: GTTTAAGAGCTAAGCTGGAAACAGCATAGCAAGTTTAAATAAGGCTAGTCCGTTATCACTGTGAAAACAGGGCACCGAGTCGGTGCT
modifications: listed as DNA, chemistry not fully specified
B2: cr892 (nucleic acid)
guide: B1 guide with C59A, T60C, A69G, G70T, A74G, C75A, G83T, T84C
modifications: listed as DNA, chemistry not fully specified
B3: cr685 (nucleic acid)
guide: B1 guide with C59G, T60C, G61T, C68A, A69G, G70T
modifications: listed as DNA, chemistry not fully specified
B4: cr173 (nucleic acid)
guide: GTTTAAGAGCTAAGCTGGAAACAGCATAGCAAGTTTAAATAAAGCTAGTCTGTTATCAACTTGAAAAAGTGGTAGCGAGTCGCTACT
modifications: listed as DNA, chemistry not fully specified
B5: cr002 (nucleic acid)
guide: B4 guide with G1C, A43G, T51C, T73C, G75C, C83G, A85G
modifications: listed as DNA, chemistry not fully specified
B6: cr709 (nucleic acid)
guide: B4 guide with A43G, T51C, C57T, G71T, T73C, G75C, C83G, A85G
modifications: listed as DNA, chemistry not fully specified
B7: cr586 (nucleic acid)
guide: B4 guide with T34C, A43G, T51C, T73C, A74C, G75C, C83G, T84G, A85G
modifications: listed as DNA, chemistry not fully specified
B8: cr322 (nucleic acid)
guide: B4 guide with A43G, T49C, T51C, C57G, T73C, G75C, C83G, A85G
modifications: listed as DNA, chemistry not fully specified
B9: cr027 (nucleic acid)
guide: B4 guide with T3C, G7A, A43G, T51C, T73C, G75C, C83G, A85G
modifications: listed as DNA, chemistry not fully specified
B10: cr108 (nucleic acid)
guide: B4 guide with A65G, T73C, G75C, C83G, A85G
modifications: listed as DNA, chemistry not fully specified
B11: cr209 (nucleic acid)
guide: B4 guide with A41C, A43G, T51C, T73C, G75C, C83G, A85G
modifications: listed as DNA, chemistry not fully specified
B12: cr237 (nucleic acid)
guide: B1 guide with C45A, G48T, C59A, T60C, A69G, G70T, G77C, C81G
modifications: listed as DNA, chemistry not fully specified
B13: cr055 (nucleic acid)
guide: B4 guide with T2G, A8C, A43G, T51C, T73C, G75C, C83G, A85G
modifications: listed as DNA, chemistry not fully specified
B14: cr897 (nucleic acid)
guide: B4 guide with A38T, A43G, T51C, T73C, G75C, C83G, A85G
modifications: listed as DNA, chemistry not fully specified
B15: cr850 (nucleic acid)
guide: B4 guide with A43G, T51C, T73C, G75C, A78G, T80G, C83G, A85G
modifications: listed as DNA, chemistry not fully specified
B16: cr468 (nucleic acid)
guide: B4 guide with T34A, A43G, T51C, T73C, G75C, C83G, A85G
modifications: listed as DNA, chemistry not fully specified
B17: cr146 (nucleic acid)
guide: B4 guide with A43G, T51C, T73C, G75C, C76G, G77C, C81G, G82C, C83G, A85G
modifications: listed as DNA, chemistry not fully specified
B18: cr210 (nucleic acid)
guide: B4 guide with A43G, T51C, A58T, A65C, T73C, G75C, C83G, A85G
modifications: listed as DNA, chemistry not fully specified
B19: cr466 (nucleic acid)
guide: B4 guide with T40A, A43G, T51C, T73C, G75C, C83G, A85G
modifications: listed as DNA, chemistry not fully specified
B20: cr004 (nucleic acid)
guide: B4 guide with T2A, A43G, T51C, T73C, G75C, C83G, A85G
modifications: listed as DNA, chemistry not fully specified
B21: cr069 (nucleic acid)
guide: B4 guide with T2C, G7A, A43G, T51C, T73C, G75C, C83G, A85G
modifications: listed as DNA, chemistry not fully specified
B22: cr591 (nucleic acid)
guide: B4 guide with A43G, T51C, A55G, A58T, T73C, G75C, C83G, A85G
modifications: listed as DNA, chemistry not fully specified
B23: cr125 (nucleic acid)
guide: B4 guide with G33T, A43G, T51C, A65T, T73C, G75C, C83G, A85G
modifications: listed as DNA, chemistry not fully specified
B24: cr471 (nucleic acid)
guide: GTTTAAGAGCTAAGCTGGAAACAGCATAGCAAGTTTAAATAAGGCTAGTCCGTTATCAACTTGAAAAAGTGTCACACAGTGTGTGAT
modifications: listed as DNA, chemistry not fully specified
B25: cr349 (nucleic acid)
guide: B24 guide with T72G, A76C, C77G, G81T, T82G, A86C
modifications: listed as DNA, chemistry not fully specified
B26: cr252 (nucleic acid)
guide: B4 guide with A43G, T51C, G52A, T73C, G75C, C83G, A85G
modifications: listed as DNA, chemistry not fully specified
B27: cr889 (nucleic acid)
guide: B4 guide with G72T, T73C, G75C, C83G, A85G, C86A
modifications: listed as DNA, chemistry not fully specified
B28: cr242 (nucleic acid)
guide: B24 guide with C45G, G48C, C60G, G69C, T72G, A76C, C77T, G81A, T82G, A86C
modifications: listed as DNA, chemistry not fully specified
B29: cr689 (nucleic acid)
guide: B4 guide with T34C, A43G, T51C, A55T, A65T, T73C, G75C, C83G, A85G
modifications: listed as DNA, chemistry not fully specified
B30: cr182 (nucleic acid)
guide: B4 guide with G33T, A43G, T51C, T73C, G75C, C83G, A85G
modifications: listed as DNA, chemistry not fully specified
B31: cr006 (nucleic acid)
guide: B4 guide with T2G, A43G, T51C, T73C, G75C, C83G, A85G
modifications: listed as DNA, chemistry not fully specified
B32: cr351 (nucleic acid)
guide: B4 guide with A43G, A47C, T51C, C57A, G63A, T73C, G75C, C83G, A85G
modifications: listed as DNA, chemistry not fully specified
B33: cr573 (nucleic acid)
guide: B4 guide with A31T, A43G, T51C, T53A, G71C, T73C, G75C, C83G, A85G
modifications: listed as DNA, chemistry not fully specified
B34: cr634 (nucleic acid)
guide: B4 guide with A32G, A43G, T51C, A58G, T73C, G75C, C83G, A85G
modifications: listed as DNA, chemistry not fully specified
B35: cr014 (nucleic acid)
guide: B4 guide with A5C, A43G, T51C, T73C, G75C, C83G, A85G
modifications: listed as DNA, chemistry not fully specified
B36: cr192 (nucleic acid)
guide: B24 guide with T72G, A74C, A76C, T82G, T84G, A86C
modifications: listed as DNA, chemistry not fully specified
B37: cr074 (nucleic acid)
guide: B4 guide with A6T, A8C, A43G, T51C, T73C, G75C, C83G, A85G
modifications: listed as DNA, chemistry not fully specified
B38: cr051 (nucleic acid)
guide: B4 guide with G1T, G7C, A43G, T51C, T73C, G75C, C83G, A85G
modifications: listed as DNA, chemistry not fully specified
B39: cr064 (nucleic acid)
guide: B4 guide with A5T, A43G, T51C, T73C, G75C, C83G, A85G
modifications: listed as DNA, chemistry not fully specified

One series relates to K562 CRISPRi cells. Nature of the series: Constant region variant library pooled growth screen, K562. Format: cell-based, human. As to conditions: sgRNA constant region variants; activity relative to the original, un-modified constant region cr995. An outline of the steps:
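K562 CRISPRi, duplicate transductions; puromycin 1 d 0.75 μg/mL then 1 d 0.85 μg/mL; >2000× coverage in spinner flasks; harvests at 4-8 d growth. Activity = phenotype ÷ phenotype with unmodified constant region.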
Regarding B1, the Mean relative activity is recorded as 1.041.
B2 displayed a Mean relative activity of 1.041.
The molecule B3 registered a Mean relative activity of 1.041.

The same series, now with this note: sgRNA constant region variants; activity relative to the unmodified constant region cr995.
Regarding B4, the Mean relative activity was found to be 0.3244.
Still for that read-out and setting: in the case of B5 it was 0.3195.
The same measure, in the same setting: in the case of B6 it was 0.3211.
The molecule B7 showed a Mean relative activity of 0.2939.
Same read-out and setting: in the case of B8 it was 0.3033; in that of B9, 0.2878.
B10 had a Mean relative activity of 0.3221.
Take B11: the Mean relative activity is 0.2959.
The molecule B12 came in with a Mean relative activity of 0.2843.
On the same count and under the same terms, the result for B13 reads 0.3045; that for B14, 0.3233.
The molecule B15 showed a Mean relative activity of 0.3225.
On the same count and under the same terms, the result for B16 reads 0.32; that for B17, 0.3141.
B18 yielded a Mean relative activity of 0.313.
In turn, B19 had a Mean relative activity of 0.3153.
Same read-out and setting: in the case of B20 it was 0.3103.
Still for that read-out and setting: in the case of B21 it was 0.3244; in that of B22, 0.2933.
In turn, B23 gave a Mean relative activity of 0.2852.

Still in this series, the particulars now being: sgRNA constant region variants; relative to the original, un-modified constant region cr995; CRISPRi.
The molecule B24 came in with a Mean relative activity of 0.3625.
The same measure, in the same setting: the result for B25 reads 0.3326.
Regarding B26, the Mean relative activity was found to be 0.3581.
B27 yielded a Mean relative activity of 0.3347.
The same measure, in the same setting: in the case of B28 it was 0.3244; in that of B29, 0.3547; in that of B30, 0.3559.
Still for that read-out and setting: the result for B31 reads 0.3275; that for B32, 0.3557.
Still for that read-out and setting: in the case of B33 it was 0.3297; in that of B34, 0.3508; in that of B35, 0.3395.
Regarding B36, the Mean relative activity stood at 0.3609.
On the same count and under the same terms, the result for B37 reads 0.341; that for B38, 0.3367.
The molecule B39 displayed a Mean relative activity of 0.3383.
